Numbering of substitutions follows the chain as printed. Names may count otherwise.
T1: EsCas13d, nuclease-dead (Eubacterium siraeum, UniProt B0MS50, R295A;H300A;R849A;H854A)
T1 sequence: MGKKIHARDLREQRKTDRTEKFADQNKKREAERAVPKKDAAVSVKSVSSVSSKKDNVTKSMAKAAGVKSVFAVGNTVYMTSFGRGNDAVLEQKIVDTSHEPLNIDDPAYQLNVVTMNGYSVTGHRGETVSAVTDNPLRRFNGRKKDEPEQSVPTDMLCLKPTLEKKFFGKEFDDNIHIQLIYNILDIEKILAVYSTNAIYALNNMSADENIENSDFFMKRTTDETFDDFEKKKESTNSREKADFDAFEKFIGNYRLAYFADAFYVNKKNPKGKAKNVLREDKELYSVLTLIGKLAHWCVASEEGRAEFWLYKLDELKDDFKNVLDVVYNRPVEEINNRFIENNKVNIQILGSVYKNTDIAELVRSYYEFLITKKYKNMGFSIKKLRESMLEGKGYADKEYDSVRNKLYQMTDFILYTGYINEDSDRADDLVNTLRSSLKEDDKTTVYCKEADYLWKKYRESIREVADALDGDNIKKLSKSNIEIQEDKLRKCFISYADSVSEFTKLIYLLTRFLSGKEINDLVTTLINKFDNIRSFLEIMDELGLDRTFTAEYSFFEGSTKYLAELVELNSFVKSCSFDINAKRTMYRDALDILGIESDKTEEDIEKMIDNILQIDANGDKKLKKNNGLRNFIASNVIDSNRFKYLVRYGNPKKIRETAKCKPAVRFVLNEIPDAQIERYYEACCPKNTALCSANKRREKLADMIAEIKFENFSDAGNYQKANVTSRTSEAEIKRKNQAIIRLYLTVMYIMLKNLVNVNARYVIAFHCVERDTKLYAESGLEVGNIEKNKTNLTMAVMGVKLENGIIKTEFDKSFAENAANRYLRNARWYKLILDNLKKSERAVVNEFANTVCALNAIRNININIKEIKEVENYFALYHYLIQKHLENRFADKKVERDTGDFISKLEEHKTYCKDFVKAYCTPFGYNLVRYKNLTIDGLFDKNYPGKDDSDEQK

B1: target 1 insA 3' of 17,insG 3' of 14 (mixed)
RNA 1: CACCCGUGCAAAAAUGCAGGGGUCUAAAACUGAGCGGAUAACCUCUCUAUGG
RNA 2: GGGAAUGGAUCCACAUCUACGAAUUCGUACCAUAGAAGAGGGUUAUCCGCUCACCGAGAUCGGAAGAGCACACGU
B2: target 1 insA 3' of 22,insG 3' of 11 (mixed)
RNA 1: B1 RNA 1
RNA 2: B1 RNA 2 with C31A, A32C, U33A, A34U, G35A, A36G, G42U, U43G
B3: target 1 insC 3' of 18,insC 3' of 9 (mixed)
RNA 1: B1 RNA 1
RNA 2: B1 RNA 2 with G35C, A36G, G42U, U44A, A45C
B4: target 1 insA 3' of 10,insU 3' of 9 (mixed)
RNA 1: B1 RNA 1
RNA 2: B1 RNA 2 with A37G, G38A, A39G, G41U, G42U, U43A, U44A, A45U
B5: target 1 A16C,U19C (mixed)
RNA 1: B1 RNA 1
RNA 2: GGGAAUGGAUCCACAUCUACGAAUUCGUACCACAGCGAGGUUAUCCGCUCACCGAGAUCGGAAGAGCACACGU
B6: target 1 U10G,G15A (mixed)
RNA 1: B1 RNA 1
RNA 2: B5 RNA 2 with C33U, C36A, G37A, U42G
B7: target 1 insA 3' of 22,insG 3' of 10 (mixed)
RNA 1: B1 RNA 1
RNA 2: B1 RNA 2 with C31A, A32C, U33A, A34U, G35A, A36G, G42U, U44G
B8: target 1 insG 3' of 8,insU 3' of 7 (mixed)
RNA 1: B1 RNA 1
RNA 2: B1 RNA 2 with A37G, G38A, A39G, G41U, G42U, U43A, A45G, U46C, C47U
B9: target 1 insU 3' of 13,insC 3' of 1 (mixed)
RNA 1: B1 RNA 1
RNA 2: GGGAAUGGAUCCACAUCUACGAAUUCGUACCAUAGAGAGUGUUAUCCGCUCACCCGAGAUCGGAAGAGCACACGU
B10: target 1 insG 3' of 14,insU 3' of 13 (mixed)
RNA 1: B1 RNA 1
RNA 2: B1 RNA 2 with A37G, G38A, A39G, G41U
B11: target 1 insC 3' of 10,insG 3' of 4 (mixed)
RNA 1: B1 RNA 1
RNA 2: B9 RNA 2 with U40G, G41U, U43C, U50G, C51U, A52C, C53A
B12: target 1 insC 3' of 20,insG 3' of 7 (mixed)
RNA 1: B1 RNA 1
RNA 2: B1 RNA 2 with U33C, A34U, G35A, A36G, G42U, U44A, A45U, U46C, C47G
B13: target 1 insC 3' of 11,insA 3' of 10 (mixed)
RNA 1: B1 RNA 1
RNA 2: B1 RNA 2 with A37G, G38A, A39G, G41U, G42C, U44A
B14: target 1 G13C,G15C (mixed)
RNA 1: B1 RNA 1
RNA 2: B5 RNA 2 with C33U, C36A, G37C, G39C
B15: target 1 insA 3' of 15,insA 3' of 7 (mixed)
RNA 1: B1 RNA 1
RNA 2: B1 RNA 2 with A37G, G38A, G42U, U44A, A45U, U46C, C47A
B16: target 1 insU 3' of 21,insC 3' of 11 (mixed)
RNA 1: B1 RNA 1
RNA 2: B1 RNA 2 with A32U, U33A, A34U, G35A, A36G, G42U, U43C
B17: target 1 insU 3' of 13,insG 3' of 1 (mixed)
RNA 1: B1 RNA 1
RNA 2: B9 RNA 2 with C53G
B18: target 1 insA 3' of 21,insA 3' of 13 (mixed)
RNA 1: B1 RNA 1
RNA 2: B1 RNA 2 with U33A, A34U, G35A, A36G, G41A
B19: target 1 insC 3' of 15,insA 3' of 8 (mixed)
RNA 1: B1 RNA 1
RNA 2: B1 RNA 2 with A37G, G38C, G42U, U44A, A45U, U46A
B20: target 1 U8C,G12C (mixed)
RNA 1: B1 RNA 1
RNA 2: B5 RNA 2 with C33U, C36A, G40C, U44C
B21: target 1 U11A,C21A (mixed)
RNA 1: B1 RNA 1
RNA 2: B5 RNA 2 with C31A, C33U, C36A, U41A
B22: target 1 insU 3' of 9,insU 3' of 1 (mixed)
RNA 1: B1 RNA 1
RNA 2: B9 RNA 2 with U40G, G41U, U43A, A44U, C53U
B23: target 1 U11C,C22U (mixed)
RNA 1: B1 RNA 1
RNA 2: B5 RNA 2 with C30U, C33U, C36A, U41C
B24: target 1 U8G,C21A (mixed)
RNA 1: B1 RNA 1
RNA 2: B5 RNA 2 with C31A, C33U, C36A, U44G
B25: target 1 insA 3' of 22,insA 3' of 4 (mixed)
RNA 1: B1 RNA 1
RNA 2: GGGAAUGGAUCCACAUCUACGAAUUCGUACACAUAGAGAGGUUAUCCGCAUCACCGAGAUCGGAAGAGCACACGU
B26: target 1 insU 3' of 15,insU 3' of 15 (mixed)
RNA 1: B1 RNA 1
RNA 2: B1 RNA 2 with A37G, G38U, A39U, G40A
B27: target 1 C2A,U11A (mixed)
RNA 1: B1 RNA 1
RNA 2: B5 RNA 2 with C33U, C36A, U41A, C50A
B28: target 1 insA 3' of 17,insU 3' of 16 (mixed)
RNA 1: B1 RNA 1
RNA 2: B1 RNA 2 with G38U, A39G, G40A
B29: target 1 insA 3' of 11,insA 3' of 5 (mixed)
RNA 1: B1 RNA 1
RNA 2: B9 RNA 2 with U40G, G41U, U42A, C49A, U50C, C51U, A52C, C53A
B30: target 1 insU 3' of 13,insA 3' of 2 (mixed)
RNA 1: B1 RNA 1
RNA 2: B9 RNA 2 with C53A
B31: target 1 C6A,G13U (mixed)
RNA 1: B1 RNA 1
RNA 2: B5 RNA 2 with C33U, C36A, G39U, C46A
B32: target 1 G15U,C22A (mixed)
RNA 1: B1 RNA 1
RNA 2: B5 RNA 2 with C30A, C33U, C36A, G37U
B33: target 1 G5U,C7A (mixed)
RNA 1: B1 RNA 1
RNA 2: B5 RNA 2 with C33U, C36A, C45A, G47U

Target: T1, EsCas13d, nuclease-dead
Test: crRNA (strand 1, pre-loaded); Mg2+; 40 mM Tris-HCl pH 7.5, 150 mM NaCl, 6 mM MgCl2, 1 mM DTT, 0.1% Tween-20, 0.2 mg/ml BSA; 25 C; 10 min per concentration, then washed
Conditions: tags: His6-TwinStrep-SUMO cleaved; N-terminal SNAP kept (SNAP-Surface 488); label: 3' end held by stalled T7 RNA polymerase

Point of comparison: B16, Kd 81 ± 21 nM. Against it:
- B1 — 5.2-fold lower, 15.5 ± 0.7 nM
- B2 — 1.9-fold lower, 42 ± 8 nM
- B3 — within error, 58 ± 8 nM
- B4 — 5.8-fold lower, 13.9 ± 0.5 nM
- B5 — within error, 94 ± 21 nM
- B6 — within error, 53 ± 15 nM
- B7 — within error, 55 ± 13 nM
- B8 — 5.7-fold lower, 14.1 ± 0.5 nM
- B9 — 3.9-fold lower, 21 ± 4 nM
- B10 — 3.6-fold lower, 22.8 ± 2.7 nM
- B11 — 9.4-fold lower, 8.6 ± 0.4 nM
- B12 — 9.2-fold lower, 8.8 ± 0.4 nM
- B13 — 2.7-fold lower, 30 ± 4 nM
- B14 — within error, 52 ± 22 nM
- B15 — 17-fold lower, 4.65 ± 0.17 nM
- B17 — 6.9-fold lower, 11.7 ± 1.7 nM
- B18 — 6.9-fold lower, 11.7 ± 0.7 nM
- B19 — 4-fold lower, 20.1 ± 2.1 nM
- B20 — 4.5-fold lower, 18.1 ± 0.6 nM
- B21 — within error, 64 ± 24 nM
- B22 — 2.5-fold lower, 32 ± 7 nM
- B23 — 3.8-fold lower, 21.2 ± 1.7 nM
- B24 — within error, 54 ± 11 nM
- B25 — 10-fold lower, 7.8 ± 1.1 nM
- B26 — 4.6-fold lower, 17.6 ± 1.2 nM
- B27 — 3.7-fold lower, 21.6 ± 1.4 nM
- B28 — 2.1-fold lower, 38 ± 8 nM
- B29 — 9.3-fold lower, 8.7 ± 0.4 nM
- B30 — 5-fold lower, 16.2 ± 1.8 nM
- B31 — 2.4-fold lower, 34 ± 4 nM
- B32 — 2-fold lower, 40 ± 6 nM
- B33 — within error, 56 ± 9 nM
